Target: the molecule itself
Assay: cryo-EM structure; dual motor condition: GFP-tagged myosin V and myosin VI anchored to a holey carbon grid by an anti-GFP antibody, F-actin applied, then MB-ATP (20 mM MOPS pH 7.4, 5 mM MgCl2, 0.1 mM EGTA, 1 mM DTT, 1 mM ATP, 0.01% NP-40) with α-catenin ABD for 30 s before plunge freezing; 0.6 µM F-actin and 1 µM α-catenin ABD (sub-saturating); consensus map 10.4 Å, 3DVA-sorted map 12.3 Å

B1: C-terminal actin-binding domain (ABD) of human α-catenin (amino acids 664–906) (domain or fragment, UniProt P35221 664-906, looked up)
chain: IAGQSARAIMAQLPQEQKAKIAEQVASFQEEKSKLDAEVSKWDDSGNDIIVLAKQMCMIMMEMTDFTRGKGPLKNTSDVISAAKKIAEAGSRMDKLGRTIADHCPDSACKQDLLAYLQRIALYCHQLNICSKVKAEVQNLGGELVVSGVDSAMSLIQAAKNLMNAVVQTVKASYVASTKYQKSQGMASLNLPAVSWKMKAPEKKPLVKREKQDETQTKIKRASQKKHVNPVQALSEFKAMDSI
notes: the tags were removed with TEV protease; also called α-catenin ABD; αE-catenin ABD; source: E. coli Rosetta2(DE3), purified (Ni-NTA, TEV cleavage, anion exchange, SEC); not shown: His6, N-terminal, cleaved; strep tag, N-terminal, cleaved
  binding result: binds

— PMC13233326, “Myosin forces remodel F-actin for mechanosensitive protein recognition” (Nature, 2026)
